Experimental data published in patent US20090010911A1, “METHODS AND COMPOSITIONS FOR AFFECTING CYCLOPHILIN A REGULATION OF KINASES IN MODULATING CELLULAR ACTIVITIES” (IOWA STATE UNIVERSITY RESEARCH FOUNDATION, INC., priority 2007, published 2009).

Biological target: T1, Itk LKD enzyme (Mus musculus, UniProt Q03526)
T1 construct: linker kinase domain (Itk LKD); made in house; host or cells: Sf9 insect cells (baculovirus), co-infected 1:1 with Lck baculovirus
T1 sequence (Q03526 344-625 limits assumed): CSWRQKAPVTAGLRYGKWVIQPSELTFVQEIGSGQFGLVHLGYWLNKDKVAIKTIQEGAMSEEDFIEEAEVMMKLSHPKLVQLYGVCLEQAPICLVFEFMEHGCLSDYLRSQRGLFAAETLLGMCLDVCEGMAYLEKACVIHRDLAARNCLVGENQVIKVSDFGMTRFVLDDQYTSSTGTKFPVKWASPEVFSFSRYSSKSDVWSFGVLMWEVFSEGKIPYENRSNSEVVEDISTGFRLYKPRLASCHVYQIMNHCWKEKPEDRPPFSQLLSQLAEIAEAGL
Experiment: Quantitative kinase assay, Km determination for Peptide B and PLCγ1 SH2C-Peptide B fusion
Assay type: biochemical
Excerpt: 5(a) Construction of a PLCγ1 SH2C-Peptide B fusion protein was based on alignment of Y783 within the PLCγ1 linker and the Tyr of Peptide B. The 14 amino acids of Peptide B were used to replace the last 16 amino acids of PLCγ1 SH2C-Y783-. The Tyr that is phosphorylated in each substrate is boxed. A mutant construct is also shown that contains serine in place of the tyrosine of peptide B. This site was mutated to serine instead of phenylalanine due to solubility problems associated with the Tyr to Phe mutation. 5(b) FLAG-tagged Itk LKD enzyme (1 μM) was incubated with 20 μM of the PLCγ1 SH2C-Peptide B fusion protein (lane 4) or 20 μM of the PLCγ1 SH2C-Peptide B(YS) mutant protein (lane 5) in an in vitro kinase assay. Lanes 1-3 are Itk enzyme alone, PLCγ1 SH2C-Peptide B substrate alone and PLCγ1 SH2C-Peptide B(YS) substrate alone, respectively, that have each been subjected to the same in vitro kinase assay conditions. (c & d) FLAG-tagged Itk LKD enzyme was incubated with increasing amounts of biotinylated PLCγ1 SH2C-Peptide B 5(c) or biotinylated Peptide B alone 5(d) in an in vitro kinase assay. 5(e) Kinetic parameters describing phosphorylation of Peptide B and the PLCγ1 SH2C-Peptide B fusion protein by Itk. Data shown are the average of two independent experiments.
Kinase assays and Western Blotting—Itk Full-length (FL), linker kinase domain (Itk LKD), kinase domain (Itk KD), full-length Btk or full-length Tec were incubated with the indicated substrates in an in vitro kinase assay buffer (50 mM Hepes pH 7.0, 10 mM MgCl2, 1 mM DTT, 1 mg/ml BSA, 1 mM Pefabloc and 200 μM ATP) for one hour at RT. The samples were boiled, separated by SDS-PAGE and transferred onto a PVDF membrane. The membranes were then blotted with either phosphotyrosine specific antibodies (anti-pY783 for PLCγ1 or pY223 Btk antibody used to detect pY180 in Itk, pY187 in Tec and pY223 in Btk (18)), an anti-phosphotyrosine antibody (4G10 from Upstate), or an anti-FLAG antibody (Sigma) and developed by standard chemiluminescence (Pierce) methods. Quantitative kinase assays (25): Km determinations for Peptide B [(Aminohexanoyl biotin-EQEDEPEGIYGVLF-NH2) (Anaspec Inc.)] and the biotinylated PLCγ1 SH2C-Peptide B fusion were carried out by incubating purified Itk LKD enzyme in reaction buffer (50 mM Hepes pH 7.0, 10 mM MgCl2, 1 mM DTT, 1 mg/ml BSA, 1 mM Pefabloc SC (4-(2-aminoethyl)-benzenesulfonyl-fluoride) and 200 μM ATP) and 5 μCi [^32P] ATP (GE Healthcare) at room temperature. Peptide B concentration was varied between 0-400 μM and PLCγ1 SH2C-Peptide B fusion concentration was varied between 0-80 μM. The enzyme concentration used for kinetic analysis was 0.9 μM. Each assay was done in duplicate. […]

increase in substrate affinity (compared to Peptide B alone): 15 fold
B1: SH2-Peptide B fusion: PLCγ1 SH2C domain covalently linked to the amino terminus of Peptide B, biotinylated fusion protein (protein)
chain: QTNAHESKEWYHASLTRAQAEHMLMRVPRDGAFLVRKRNEPNSYAISFRAEGKIKHCRVQQEGQTVMLGNSEFDSLVDLISYYEKHPLYRKMKLRYPINEEALEKIGTAEPDFGAEQEDEPEGIYGVLF
modifications: left off: things letters cannot carry
notes: PLCγ1 SH2C domain covalently linked to the amino terminus of Peptide B, biotinylated fusion protein
better substrate (kcat/Km) (compared to Peptide B alone): 7 fold
kcat value, change on attachment of PLCγ1 SH2C domain to Peptide B (compared to Peptide B alone): only changed to a small extent
Km (phosphorylation by Itk LKD enzyme 0.9 μM, 200 μM ATP, room temperature): 5.64 µM
